The term Kd denotes the constant that tells how readily two partners part at equilibrium. A low value points to tighter binding.

For the assay, the target named is T1, VEGF (R&D systems, Minneapolis, Minn.) (UniProt P15692-4 27-191, limits assumed).
T1 construct: Soluble analyte in the BIAcore assay; also called vascular endothelial growth factor; VEGFA
Briefly: SPR (BIAcore 2000/3000), antibody captured on anti-human Fc, VEGF as analyte, 1:1 Langmuir fit; variant corresponding to SEQ ID NO:82, the tightest of the variants. The procedure:
RL was kept low to minimize avidity due to the dimeric nature of VEGF. No capture of the antibody was made on the reference surface to serve as a negative control. Subsequently, VEGF was injected to all flow cells at a flow rate of 50 μL/min for two minutes to monitor association followed by a 25-minute flow of HBS-P running buffer (10 mM HEPES, 150 mM sodium chloride, 0.005% P-20, pH 7.4) to monitor the dissociation phase. At each cycle, VEGF, in 6 different concentrations of VEGF ranging between 0 nM and 512 nM and at four-fold increments, was injected over the surface. […] Binding data were fit to the 1:1 Langmuir model to extract binding constants from the BIAevaluate software. Double referencing was applied in each analysis to eliminate background responses from the reference surface and buffer only control. All the binding kinetics data were analyzed at least three separate determinations.

T1 sequence (P15692 other isoform, or with tags, fused parts or gaps limits assumed): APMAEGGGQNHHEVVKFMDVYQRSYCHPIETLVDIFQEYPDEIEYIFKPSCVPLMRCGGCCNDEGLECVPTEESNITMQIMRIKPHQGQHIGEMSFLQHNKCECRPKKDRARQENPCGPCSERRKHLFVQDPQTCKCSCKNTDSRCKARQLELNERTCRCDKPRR

B1: bevacizumab variant corresponding to SEQ ID NO:82 (antibody, V domains shown)
VH: EVQLVESGGGLVQPGGSLRLSCAASGYTFTFYGMNWVRQAPGKGLEWVGWINTYTGEPTYAADFKRRFTFSLDTSKSTAYLQMNSLRAEDTAVYYCAKYPDYDGGSHWYFDVWGQGTLVTVSS
VL: DIQMTQSPSSLSASVGDRVTITCSASQDISNYLNWYQQKPGKAPKVLIYFTSSLHSGVPSRFSGSGSGTDFTLTISSLQPEDFATYYCQQYSTVPWTFGQGTKVEIKR
notes: Variant VH cloned with the unmodified VL into a human IgG1-containing plasmid and expressed in 293T/17 cells
For B1, the Kd was 80 pM.

Values taken from patent US20100322931A1 (AbbVie / Abbott, published 2010).
